Settings: N-glycosylation at N138

Substance | other | localisation_or_trafficking | expression_or_secretion
nicotinic acetylcholine receptor β4 subunit: S140G (sequon disruption), co-expressed with α4: ACh and nicotine EC50 | changes, ACh EC50 9.36±1.35 to 16.7±2.1 µM (P<0.01); nicotine EC50 1.48±0.17 to 2.75±0.27 µM (P<0.01); sag to ACh 0.90 to 0.76 (P |  | 
nicotinic acetylcholine receptor β4 subunit: S140G (sequon disruption), co-expressed with α3: nicotine EC50 | changes, nicotine EC50 22±4 µM (WT) to 48±4 µM, P<0.05; ACh EC50 not significantly changed |  | 
nicotinic acetylcholine receptor β4 subunit: M467V+S140G, co-expressed with α3 |  | decreases, relative surface ELISA 0.17±0.02 vs 1.00 (WT), P<0.001 | 
nicotinic acetylcholine receptor β4 subunit: S140G (sequon disruption), co-expressed with α3 |  | abolishes, relative surface ELISA −0.04±0.05 vs 1.00 (WT), P<0.001 | no change
nicotinic acetylcholine receptor β4 subunit: S140G (sequon disruption), co-expressed with α4 |  | abolishes, relative surface ELISA −0.13±0.22 vs 1.00 (WT), P<0.001 | 

Reference: paper PMC4013067
